Reference: patent publication US20120058906A1 (published 2012)

Columns and labels:
[1] = biological target: T1, rHuman HGF R/c-MET/Fc Chimera, CF (R&D Systems Cat#358-MT/CF) (human, UniProt P08581 25-932); assay: ECL (MSD multi-spot), antigen on plate, Fab 50 nM
T1 construct: Bought Fc chimera; also called HGF R/Fc; not shown: Fc of the bought chimera

[2] = biological target: T2, rHuman CD44/Fc Chimera, CF (R&D Systems Cat#3660-CD) (human, UniProt P16070 21-220); assay: ECL (MSD multi-spot), antigen on plate, Fab 50 nM
T2 construct: Bought Fc chimera; not shown: Fc of the bought chimera

[3] = biological target: T3, rHuman IGF-1 sR (IGF-1 sR), CF (R&D Systems Cat#391-GR) (human, UniProt P08069 31-932); assay: ECL (MSD Multi-Spot) binding assay, antigen spotted on plate; Fab 6 nM; blank spot 191
T3 construct: Bought soluble receptor; also called insulin-like growth factor-1 soluble receptor; IGF-R1

[4] = biological target: T4, rHuman EGF R/Fc Chimera, CF (R&D Systems Cat#344-ER) (human, UniProt P00533 25-645); assay: as above
T4 construct: Bought Fc chimera; also called epidermal growth factor receptor; Fc part of the bought chimera not given

[5] = biological target: T5, rHuman Notch-1/Fc Chimera, CF (R&D Systems Cat#3647-TK) (human, UniProt P46531 19-526); assay: ECL (MSD Multi-Spot) binding assay, antigen spotted on plate; Fab 3.8 nM; blank spot 198
T5 construct: Bought Fc chimera; Fc part of the bought chimera not given

[6] = biological target: T6, rHuman P-Cadherin/Fc Chimera, CF (R&D Systems Cat#861-PC) (human, UniProt P22223 108-654); assay: as above
T6 construct: Bought Fc chimera; also called CDH3; Fc part of the bought chimera not given

[7] = biological target: T7, rHuman Erythropoietin R/Fc Chimera, CF (R&D Systems Cat#963-ER) (human, UniProt P19235 25-250); assay: as above
T7 construct: Bought Fc chimera; also called EPO R/Fc; Epo R; Fc part of the bought chimera not given
T7 sequence: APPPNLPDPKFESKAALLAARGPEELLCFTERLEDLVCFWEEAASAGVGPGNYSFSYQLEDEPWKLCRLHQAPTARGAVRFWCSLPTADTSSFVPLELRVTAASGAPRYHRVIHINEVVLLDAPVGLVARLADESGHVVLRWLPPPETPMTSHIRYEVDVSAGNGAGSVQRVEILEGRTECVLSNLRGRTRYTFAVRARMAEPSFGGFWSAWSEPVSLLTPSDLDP

[8] = biological target: T8, rHuman CD44/Fc Chimera, CF (R&D Systems Cat#3660-CD) (human, UniProt P16070 21-220); assay: as above
T8 construct: Bought Fc chimera; Fc part of the bought chimera not given

[9] = biological target: T9, Recombinant Human DLL4 (R&D Systems Cat#1506-D4/CF) (human, UniProt Q9NR61 27-524); assay: as above
T9 construct: Bought recombinant protein; also called delta-like protein 4; rHuman DLL4

[10] = biological target: T10, rHuman P-Cadherin/Fc Chimera, CF (R&D Systems Cat#861-PC) (human, UniProt P22223 108-654); assay: ECL (MSD multi-spot), antigen spotted on plate; Fab 22 nM; blank spot 289
T10 construct: Bought reagent; also called CDH3; Fc part of the bought chimera not given

[11] = biological target: T11, rHuman EGF R/Fc Chimera, CF (R&D Systems Cat#344-ER) (human, UniProt P00533 25-645); assay: as above
T11 construct: Bought reagent; also called epidermal growth factor receptor; Fc part of the bought chimera not given

[12] = biological target: T12, rHuman ErbB2/Fc Chimera, CF (R&D Systems Cat#1129-ER) (human, UniProt P04626 23-652); assay: as above
T12 construct: Bought reagent; also called HER2/neu; human epidermal growth factor 2 receptor; Fc part of the bought chimera not given

[13] = biological target: T13, rHuman HGF R/c-MET/Fc Chimera, CF (R&D Systems Cat#358-MT/CF) (human, UniProt P08581 25-932); assay: as above
T13 construct: Bought reagent; also called HGF R/Fc; hepatocyte growth factor receptor; Fc part of the bought chimera not given

[14] = biological target: T14, rHuman IGF-1 sR (IGF-1 sR), CF (R&D Systems Cat#391-GR) (human, UniProt P08069 31-932); assay: as above
T14 construct: Bought soluble receptor; also called insulin-like growth factor-1 soluble receptor; IGF-R1

[15] = biological target: T15, rHuman Erythropoietin R/Fc Chimera, CF (R&D Systems Cat#963-ER) (human, UniProt P19235 25-250); assay: as above
T15 construct: Bought reagent; also called EPO R/Fc; Epo R; Fc part of the bought chimera not given
T15 sequence: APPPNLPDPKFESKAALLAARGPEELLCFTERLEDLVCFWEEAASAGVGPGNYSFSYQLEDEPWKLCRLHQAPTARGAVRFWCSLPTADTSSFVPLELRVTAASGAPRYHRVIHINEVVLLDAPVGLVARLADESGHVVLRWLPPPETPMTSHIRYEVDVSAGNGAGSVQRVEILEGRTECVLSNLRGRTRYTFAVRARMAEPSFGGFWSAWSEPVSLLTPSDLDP

[16] = biological target: T16, rHuman Notch-1/Fc Chimera, CF (R&D Systems Cat#3647-TK) (human, UniProt P46531 19-526); assay: as above
T16 construct: Bought reagent; Fc part of the bought chimera not given

[17] = biological target: T17, rHuman CD44/Fc Chimera, CF (R&D Systems Cat#3660-CD) (human, UniProt P16070 21-220); assay: as above
T17 construct: Bought reagent; Fc part of the bought chimera not given

[18] = biological target: T18, Recombinant Human DLL4 (R&D Systems Cat#1506-D4/CF) (human, UniProt Q9NR61 27-524); assay: as above
T18 construct: Bought reagent; also called delta-like protein 4
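Also: blank spot per well as comparator with Hit at signal to blank ratio of 4 or more.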

B1: Fab VH1-46_IGHD6-6*01_IGHJ1*01_S102A_S103P_S104F & L6_IGKJ1*01_S30N (Fab, V domains shown)
VH: QVQLVQSGAEVKKPGASVKVSCKASGYTFTSYYMHWVRQAPGQGLEWMGIINPSGGSTSYAQKFQGRVTMTRDTSTSTVYMELSSLRSEDTAVYYCAREEYAPFSAEYFQHWGQGTLVTVSS
VL: EIVLTQSPATLSLSPGERATLSCRASQSVNSYLAWYQQKPGQAPRLLIYDASNRATGIPARFSGSGSGTDFTLTISSLEPEDFAVYYCQQRSNWPPWTFGQGTKVEIKR
notes: Fab
[1]
  ECL signal: 135 ECL signal
[2]
  ECL signal: 271 ECL signal

B2: Fab VH5-51_IGHD5-18*01>3_IGHJ4*01 & V3-4_IGLJ1*01 (Fab, V domains shown)
VH: EVQLVQSGAEVKKPGESLKISCKGSGYSFTSYWIGWVRQMPGKGLEWMGIIYPGDSDTRYSPSFQGQVTISADKSISTAYLQWSSLKASDTAMYYCARRGYSYGYDYFDYWGQGTLVTVSS
VL: QTVVTQEPSFSVSPGGTVTLTCGLSSGSVSTSYYPSWYQQTPGQAPRTLIYSTNTRSSGVPDRFSGSILGNKAALTITGAQADDESDYYCVLYMGSGISYVFGTGTKVTVL
notes: Tested as a Fab made in E. coli; also called IGHV5-51*03
[3]
  ECL signal: 854
[4]
  ECL signal: 742

B3: Fab VH6-1_IGHD3-3*01_IGHJ4*01 & V4-3_IGLJ4*01 (Fab, V domains shown)
VH: QVQLQQSGPGLVKPSQTLSLTCAISGDSVSSNSAAWNWIRQSPSRGLEWLGRTYYRSKWYNDYAVSVKSRITINPDTSKNQFSLQLNSVTPEDTAVYYCAREYYDFWSGYYTDYFDYWGQGTLVTVSS
VL: QPVLTQPTSLSASPGASARLTCTLRSGINLGSYRIFWYQQKPESPPRYLLSYYSDSSKHQGSGVPSRFSGSKDASSNAGILVISGLQSEDEADYYCMIWHSSASFVFGGGTQLIIL
notes: Tested as a Fab made in E. coli; also called IGHV6-1*01
[5]
  ECL signal: 383
[6]
  ECL signal: 281
[7]
  ECL signal: 407
[8]
  ECL signal: 419
[9]
  ECL signal: 462

B4: Fab VH1-46_IGHD3-10*01_IGHJ4*01 & B3_IGKJ1*01 (Fab, V domains shown)
VH: QVQLVQSGAEVKKPGASVKVSCKASGYTFTSYYMHWVRQAPGQGLEWMGIINPSGGSTSYAQKFQGRVTMTRDTSTSTVYMELSSLRSEDTAVYYCAREYYYGSGSYYNDYFDYWGQGTLVTVSS
VL: not shown
notes: also called IGHV1-46*01
[10]
  ECL signal: 215
[11]
  ECL signal: 312
[12]
  ECL signal: 363
[13]
  ECL signal: 203
[14]
  ECL signal: 347
[15]
  ECL signal: 2240
[16]
  ECL signal: 389
[17]
  ECL signal: 317
[18]
  ECL signal: 342
